Data from US5621089.

Target: casein

- proteolytic activity (Casein Protease Units, CPU): 120 CPU/l
Substance: PD498 alkaline protease (protease purified from Bacillus sp. PD498, NCIMB No. 40484) (enzyme)
